Experimental data taken from patent US20120090043A1, “TARGETS FOR RETROVIRUS ASSOCIATED DISEASES” (priority 2009, published 2012).

B1: LNX2: human host interactor protein, Gene ID 222484, expressed from transfected ORF vector (protein)
chain: MGTTSDEMVSVEQTSSSSLNPLCFECGQQHWTRENHLYNYQNEVDDDLVCHICLQPLLQPLDTPCGHTFCYKCLRNFLQEKDFCPLDRKRLHFKLCKKSSILVHKLLDKLLVLCPFSSVCKDVMQRCDLEAHLKNRCPGASHRRVALERRKTSRTQAEIENENGPTLLDPAGTLSPEADCLGTGAVPVERHLTSASLSTWSEEPGLDNPAFEESAGADTTQQPLSLPEGEITTIEIHRSNPYIQLGISIVGGNETPLINIVIQEVYRDGVIARDGRLLAGDQILQVNNYNISNVSHNYARAVLSQPCNTLHLTVLRERRFGNRAHNHSDSNSPREEIFQVALHKRDSGEQLGIKLVRRTDEPGVFILDLLEGGLAAQDGRLSSNDRVLAINGHDLKYGTPELAAQIIQASGERVNLTIARPGKPQPGNTIREAGNHSSSSQHHTPPPYYSRPSSHKDLTQCVTCQEKHITVKKEPHESLGMTVAGGRGSKSGELPIFVTSVPPHGCLARDGRIKRGDVLLNINGIDLTNLSHSEAVAMLKASAASPAVALKALEVQIVEEATQNAEEQPSTFSENEYDASWSPSWVMWLGLPSTLHSCHDIVLRRSYLGSWGFSIVGGYEENHTNQPFFIKTIVLGTPAYYDGRLKCGDMIVAVNGLSTVGMSHSALVPMLKEQRNKVTLTVICWPGSLV
B2: LZTS2: human host interactor protein, Gene ID 84445, expressed from transfected ORF vector (protein)
chain: MAIVQTLPVPLEPAPEAATAPQAPVMGSVSSLISGRPCPGGPAPPRHHGPPGPTFFRQQDGLLRGGYEAQEPLCPAVPPRKAVPVTSFTYINEDFRTESPPSPSSDVEDAREQRAHNAHLRGPPPKLIPVSGKLEKNMEKILIRPTAFKPVLPKPRGAPSLPSFMGPRATGLSGSQGSLTQLFGGPASSSSSSSSSSAADKPLAFSGWASGCPSGTLSDSGRNSLSSLPTYSTGGAEPTTSSPGGHLPSHGSGRGALPGPARGVPTGPSHSDSGRSSSSKSTGSLGGRVAGGLLGSGTRASPDSSSCGERSPPPPPPPPSDEALLHCVLEGKLRDREAELQQLRDSLDENEATMCQAYEERQRHWQREREALREDCAAQAQRAQRAQQLLQLQVFQLQQEKRQLQDDFAQLLQEREQLERRCATLEREQRELGPRLEETKWEVCQKSGEISLLKQQLKESQAELVQKGSELVALRVALREARATLRVSEGRARGLQEAARARELELEACSQELQRHRQEAEQLREKAGQLDAEAAGLREPPVPPATADPFLLAESDEAKVQRAAAGVGGSLRAQVERLRVELQRERRRGEEQRDSFEGERLAWQAEKEQVIRYQKQLQHNYIQMYRRNRQLEQELQQLSLELEARELADLGLAEQAPCICLEEITATEI
B3: KRT8: human host interactor protein, Gene ID 3856, expressed from transfected ORF vector (protein)
chain: MSIRVTQKSYKVSTSGPRAFSSRSYTSGPGSRISSSSFSRVGSSNFRGGLGGGYGGASGMGGITAVTVNQSLLSPLVLEVDPNIQAVRTQEKEQIKTLNNKFASFIDKVRFLEQQNKMLETKWSLLQQQKTARSNMDNMFESYINNLRRQLETLGQEKLKLEAELGNMQGLVEDFKNKYEDEINKRTEMENEFVLIKKDVDEAYMNKVELESRLEGLTDEINFLRQLYEEEIRELQSQISDTSVVLSMDNSRSLDMDSIIAEVKAQYEDIANRSRAEAESMYQIKYEELQSLAGKHGDDLRRTKTEISEMNRNISRLQAEIEGLKGQRASLEAAIADAEQRGELAIKDANAKLSELEAALQRAKQDMARQLREYQELMNVKLALDIEIATYRKLLEGEESRLESGMQNMSIHTKTTSGYAGGLSSAYGGLTSPGLSYSLGSSFGSGAGSSSFSRTSSSRAVVVKKIETRDGKLVSESSDVLPK
B4: TFIP11: human host interactor protein, Gene ID 24144, expressed from transfected ORF vector (protein)
chain: MSLSHLYRDGEGRIDDDDDERENFEITDWDLQNEFNPNRQRHWQTKEEATYGVWAERDSDDERPSFGGKRARDYSAPVNFISAGLKKGAAEEAELEDSDDEEKPVKQDDFPKDFGPRKLKTGGNFKPSQKGFAGGTKSFMDFGSWERHTKGIGQKLLQKMGYVPGRGLGKNAQGIINPIEAKQRKGKGAVGAYGSERTTQSMQDFPVVDSEEEAEEEFQKELSQWRKDPSGSKKKPKYSYKTVEELKAKGRISKKLTAPQKELSQVKVIDMTGREQKVYYSYSQISHKHNVPDDGLPLQSQQLPQSGKEAKAPGFALPELEHNLQLLIDLTEQEIIQNDRQLQYERDMVVNLFHELEKMTEVLDHEERVISNLSKVLEMVEECERRMQPDCSNPLTLDECARIFETLQDKYYEEYRMSDRVDLAVAIVYPLMKEYFKEWDPLKDCTYGTEIISKWKSLLENDQLLSHGGQDLSADAFHRLIWEVWMPFVRNIVTQWQPRNCDPMVDFLDSWVHIIPVWILDNILDQLIFPKLQKEVENWNPLTDTVPIHSWIHPWLPLMQARLEPLYSPIRSKLSSALQKWHPSDSSAKLILQPWKDVFTPGSWEAFMVKNIVPKLGMCLGELVINPHQQHMDAFYWVIDWEGMISVSSLVGLLEKHFFPKWLQVLCSWLSNSPNYEEITKWYLGWKSMFSDQVLAHPSVKDKFNEALDIMNRAVSSNVGAYMQPGARENIAYLTHTERRKDFQYEAMQERREAENMAQRGIGVAASSVPMNFKDLIETKAEEHNIVFMPVIGKRHEGKQLYTFGRIVIYIDRGVVFVQGEKTWVPTSLQSLIDMAK
B5: GCC1: human host interactor protein, Gene ID 79571, expressed from transfected ORF vector (protein)
chain: MEKFGMNFGGGPSKKDLLETIETQKKQLLQYQARLKDVVRAYKSLLKEKEALEASIKVLSVSHEADVGLAGVQLPGLTFPDSVDDRCSTHSEDSTGTATSLDTAASLTSTKGEFGVEDDRPARGPPPPKSEEASWSESGVSSSSGDGPFAGGEVDKRLHQLKTQLATLTSSLATVTQEKSRMEASYLADKKKMKQDLEDASNKAEEERARLEGELKGLQEQIAETKARLITQQHDRAQEQSDHALMLRELQKLLQEERTQRQDLELRLEETREALAGRAYAAEQMEGFELQTKQLTREVEELKSELQAIRDEKNQPDPRLQELQEEAARLKSHFQAQLQQEMRKTALAEDQLRQQSQVEEQRVAALENQISEVSELLGTYEKAKQKDQLAIQKLKERILQLDLENKTLALAASSRSPLDSHGEESSLDVNVLKDKMEKLKRLLQVAARKSQVTLDVEKLCDLEIMPSSEAADGEKATALYYQQELKQLKEEFERYKMRAQVVLKSKNTKDGNLGKELEAAQEQLAELKEKYISLRLSCEELEHQHQQEADDWKQELARLQQLHRQELERCQLDFRDRTLKLEEELHKQRDRALAVLTEKDLELEQLRSVALASGLPGRRSPVGGGGPGDPADTSSSDSLTQALQLAAANEPTFFLYAEQLARKEVEITSLRKQKHRLEVEVHQLQDRLLEEGERHREEVAALQSHIEKNIRDQSREGANLEYLKNIIYRFLTLPDSLGRQQTLTAILTILHFSPEEKQVIMRLPTSASWWPSGKR

What was measured:
[1] = tested on: HIV-1 LTR promoter transactivation by HIV-1 Tat; assay: Transactivation assay, HIV-1 LTR luciferase reporter with HIV-1 Tat; type: cell-based; conditions: HEK293 cells co-transfected with pHIV1LTR-Luc, HIV-1 Tat and the human ORF; relative luciferase activity 24 h post-transfection; positive if >=2 or <=0.5 and p<0.05
How it was run: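 HEK293 cells (10^4) were calcium-phosphate co-transfected with the HIV-1 LTR-luciferase reporter plus HIV-1 Tat, or the HTLV-1 LTR-luciferase reporter plus HTLV-1 Tax, each with a human ORF expression plasmid. A hit required relative activity ≥2 or ≤0.5 with paired t-test p<0.05.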

[2] = tested on: HTLV-1 LTR promoter transactivation by HTLV-1 Tax; assay: Transactivation assay, HTLV-1 LTR luciferase reporter with HTLV-1 Tax; type: cell-based; conditions: HEK293 cells co-transfected with pHTLV1LTR-Luc, HTLV-1 Tax and the human ORF; relative luciferase activity 24 h post-transfection; positive if >=2 or <=0.5 and p<0.05

Molecule | HIV_LTR transactiv. [1] | HTLV_LTR transactiv. [2]
B1 | 0.26 fold change | 0.28 fold change
B2 | 0.49 fold change | 0.23 fold change
B3 | 0.19 fold change | 0.24 fold change
B4 | 0.19 fold change | 0.45 fold change
B5 | 3.78 fold change | 0.29 fold change
